# Test: yeast display, Sf9 membrane polyspecificity reagent, FACS + sequencing; frameworks hold sequencing errors
# Procedure, shortened: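 Galactose induction of a Saccharomyces cerevisiae BJ5465 synthetic nanobody display library ran 36–48 hours. The cells were then stained for 1 hour at 4 °C with 10% biotinylated, detergent-solubilized Sf9 membrane reagent, pulled down on streptavidin microbeads and FACS-sorted into low and high (top ~1%) gates on expression and reagent-binding fluorescence. Labels for polyreactivity follow the gate of origin.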
row,Sequence,polyreactivity (PSR sort gate)
1,QVQLVESGGGLVQAGGSLRLSCAASGRTFNSYAMGWYRQAPGKEREFVASITFSTGRTYYADSVKGRFTISRDNAKNTVYLQMNSLKPEDTAVYYCNVRFVTGYRYRYGDDYWGQGTQVTVSS,low polyreactivity
2,QVQLVESGGGLVQAGGSLRLSCAASGRTFNSYPMGWYRQAPGTERELVAAINYRGTSTYYSDSVKGRFTISRDNAMNTVYLQMNSLKPEDTAVYYCNARQTRSSRINYPEGIYNYWGQGTQVNVSS,high polyreactivity
3,QVQLVESGGGLVQAGGSLRLSCAASGRTFNTYAMGWYRQAPGKERELVAAISSGGRTYYADSVKGRFTISRDNAKNTVYLQMNSLKPEDTAVYYCAAKPFQYRTVYEYWGQGTQVTVSS,high polyreactivity
4,QVQLVESGGGLVQAGGSLRLSCAASGRTFNVNAMGWYRQAPGKERELVAAISSSGTTNYADSVKGRFTISRDNAKNTVYLQMNSLKPEDTAVYYCNKRWRDKYPQYDYWGQGTQVTVSS,low polyreactivity
5,QVQLVESGGGLVQAGGSLRLSCAASGRTFNWYAMGWYRQAPGKERELVAAISYSGGGTYYADSVKGRFTISRDNAKNTVYLQMNSLKPEDTAVYYCAAETYYAPYVYWGQGTQVTVSS,high polyreactivity
6,QVQLVESGGGLVQAGGSLRLSCAASGRTFNWYAMGWYRQAPGKERELVAAISYSGGGTYYADSVKGRFTISRDTAKNTVYLQMNSLKPEDTAVYYCAAETYYAPYDYWGQGTQVTVSS,high polyreactivity
7,QVQLVESGGGLVQAGGSLRLSCAASGRTFNWYAMGWYRQAPGKESELVAAISSRGGSTYADSVKGRFTISRDNAKNTVYLQMNSLTPEDTAVYYCNADLLPADAPLWVTGGDYWGQGTQVTVSW,low polyreactivity
8,QVQLVESGGGLVQAGGSLRLSCAASGRTFNYYAMGWYRQAPGKEREFVAANSWSVGSTYYADSVKGRFTISRDNAKNTVYLQMNSLKPEDTAVYYCATEVPVGVQRHIFNYYYWGQGTPVTVSS,low polyreactivity
9,QVQLVESGGGLVQAGGSLRLSCAASGRTFNYYAMGWYRQAPGKERELVAAISSSGGRTYYADSVKGRFTISRDNAKNTVYLQMNSLKPEDTAVYYCAADSFYYRPEYDYWGQGTQVTVSS,low polyreactivity
10,QVQLVESGGGLVQAGGSLRLSCAASGRTFNYYAMGWYRQAPGKERELVATITFSGDGSTYYAHSVKGRFTISRDNAKNTVYLHMNSLKPEDTAVYYCTADIEKSYNYWGQGTQVTVSS,low polyreactivity
11,QVQLVESGGGLVQAGGSLRLSCAASGRTFPAYTMGWYRQAPGKERELVAAINWSGGSTYYADSVKGRFTISRDNAKNTVYLQMNSLKPEDTAVYYCARTSHYYGFRSYGTLDYWGQGTQVTVSS,high polyreactivity
12,QVQLVESGGGLVQAGGSLRLSCAASGRTFPFYAMGWYRQAPGKERELVAAISISGGSTYYADSVKGRFTISRDNAKNTVYLLMNSLKPEDTAVYYCATDGLYLSWQYSWEELYYWGQGTQVTVSS,high polyreactivity
13,QVQLVESGGGLVQAGGSLRLSCAASGRTFPFYAMGWYRQAPGKERELVADITSSGGSTYYADSVKGRFTISRDNAKNTVYLQMNSLKPEDTAVYFCNSFRGAQGSDAYDWGQGTQVTVSS,low polyreactivity
14,QVQLVESGGGLVQAGGSLRLSCAASGRTFPGNAMGWYRQAPGKERELVAAISWSGTRTYYADSVKGRFTISRDNAKNTVYLQMNSLKPEDTAVYYCNRRYWSFFPYDYWGQGTQVTVSS,high polyreactivity
15,QVQLVESGGGLVQAGGSLRLSCAASGRTFPGNDMGWYRQAPGKERELVAAISSDDSTYYADSVKGRFTISRDNAKNTVYLQMNSLKPEDTAVYYCNAEYYEGYIGVPGSYWPYEYWGQGTQVTVSS,low polyreactivity
16,QVQLVESGGGLVQAGGSLRLSCAASGRTFPGYAMGWYRQAPGKERELVAAISWSGTSTYYADSVKGRFTISRDNAKNTVYLQMNSLKPEDTAVYYCNKVYTYSAPYYYWGQGTQVTVSS,high polyreactivity
17,QVQLVESGGGLVQAGGSLRLSCAASGRTFPGYAMGWYRQAPGKERELVATITGNGGSTYYADSVKGRFTISRDNAKNTVYLQMNSLKPDDTAVYYCAAGRRRPYVRAYSGTDYWGQGTQVTVSS,low polyreactivity
18,QVQLVESGGGLVQAGGSLRLSCAASGRTFPGYAMGWYRQAPGKEREVVAGISYRGGSTYYADSVKGRFTISRDNPKNTVYLQMNSLKPVDTAVYYCARDYSRHKGDYWGQGTQVTVSS,low polyreactivity
19,QVQLVESGGGLVQAGGSLRLSCAASGRTFPLNAMGWYRQAPGKERELVARISSNGGSTYYADSMKGRFTISRDNAKNTVYLQMNSLKPEDTAVYYCAARYYSRRGLYYWGQGTQVTVSS,high polyreactivity
20,QVQLVESGGGLVQAGGSLRLSCAASGRTFPPYAMGWYRQGPGKERELVASIRRGGSTHYADSVKRRFTISRDNAKNTVYLQMNSLQPEDTAVYYCAAYYGGWSTYGAGYGGFYYWGQGTQVTVSS,high polyreactivity
21,QVQLVESGGGLVQAGGSLRLSCAASGRTFPRNGMGWYRQAPGKERELVAAISWSGGRTYYADSVKGRFTISRDNAKNTVYLQMNSLKPEDTAVYYCNALYFRKGGYWGQGTQVTVSS,high polyreactivity
22,QVQLVESGGGLVQAGGSLRLSCAASGRTFPSNVMGWYRQAPGKEREFVAAITTRGGNTRYADSVKGRFTISRDNAKNTVYLQMNSLKPEDTAVFYCAAKVKPGYDYWGQGTQVTVSS,low polyreactivity

row,Sequence,polyreactivity (PSR sort gate)
1,QVQLVESGGGLVQAGGSLRLSCAASGRTFPVYAMGWYRQAPGKEREFVAAISRRGGSTYYADSVKGRFTISRDNAKNTVYLQMNSLKPQDTAVYYCAKVYYLYGAQHNPGRYDYWGQGTQLTVSS,high polyreactivity
2,QVQLVESGGGLVQAGGSLRLSCAASGRTFPVYAMGWYRQAPGKERELVAAIRFSGGSTYYADSVKGRFTISRDNAKNTVYLQMNSLKPEDTAVYYCAADDWSWSTAWVPWYNYDYWGQGTQVTVSS,low polyreactivity
3,QVQLVESGGGLVQAGGSLRLSCAASGRTFPYNAMGWYRQAPGKERELVAAISGRGGSTYYADSVKGRFTISRDNAKNTVYLQMNSLKPEDTAVYYCAARLPWSYYRTQGYNYWGQGTQVTVSS,high polyreactivity
4,QVQLVESGGGLVQAGGSLRLSCAASGRTFPYNAMGWYRQAPGKERELVAAISSGGSTNYADSVKGRFTISRDNAKNTVYLQMNSLKPEDTAVYYCAVTGWPRYTWYSYGYWGQGTQVTVSS,low polyreactivity
5,QVQLVESGGGLVQAGGSLRLSCAASGRTFPYNAMGWYRTAPGKERELVAAISSGGSTNYADSVKGRFTISRDNAKNTVYLQMNSLKPEDTAVYYCAVTGWPRYTWYSYGYWGQGTQVTVSS,low polyreactivity
6,QVQLVESGGGLVQAGGSLRLSCAASGRTFPYNDMGWYRQAPGKERQLVAGISLSGGSTFYADSVKGRFTISRDNAKKTVYLQRNSLKAEDTAVYYCNAPGGRYVWTDDYDYWGQGTQVTVSS,high polyreactivity
7,QVQLVESGGGLVQAGGSLRLSCAASGRTFPYYAMGWSRQAPGKERELVAAITRGGNTNYADSVKGRFTISRDNAKNTVYLQMNSLKPEDTAVYYCAALVRAGPRRGTIYDYWGQGTQVTVSS,high polyreactivity
8,QVQLVESGGGLVQAGGSLRLSCAASGRTFPYYAMGWYRQAPGKERELVAAISSSGGSTYYADSVKARFTISGDNAKNTVYLQMNSLKPEDTAVYDCTRYSRLYLTDDDYWGQGTQVTVSS,high polyreactivity
9,QVQLVESGGGLVQAGGSLRLSCAASGRTFPYYTMGWYRQAPGKERELVAAISSSGGSTYYADSVKGRFTISRDNAKNTVYLQMNSLKPEDTAVYYCNAGYRWTHFGSWGQGTQVTVSS,low polyreactivity
10,QVQLVESGGGLVQAGGSLRLSCAASGRTFQDNAMGWYRQAPGKEREFVAAISWSGDSTYYADSVKGRFTISRDNAKNTVYLQMNSLKPEDTAVYYCAASRVIPSYPYYKYDYWGQGTQVTVSS,low polyreactivity
11,QVQLVESGGGLVQAGGSLRLSCAASGRTFQDNAMGWYRQAPGKERELVAAIRDNGGSTYYADSVKGRFTISRDNAKNTVYLQMNSLKPEDTAVYYCAADQGTGSYDYWGQGTQVTVSS,low polyreactivity
12,QVQLVESGGGLVQAGGSLRLSCAASGRTFQDNAMGWYRQAPGKERELVAAISWRGGSTNYADSVKGRFTISRDNAKNTVYLQMNSLKPEDTAVYYCAKGIRRWYGGSDYWGQGTQVTVSS,low polyreactivity
13,QVQLVESGGGLVQAGGSLRLSCAASGRTFQEYAMGWYRQAPGKERELVADISDGGSTNYADSVKGRFTISRDNAKNTVYLLMKSLKPEDTAGYYCAAARPGWRVGYDYWGQGTQVTVSS,low polyreactivity
14,QVQLVESGGGLVQAGGSLRLSCAASGRTFQFYTMGWYRQAPGKERELVAVITVSSASTFYADSVKGRFTISRDNAKNTVYLQMNSLKPEDTAVYYCAAGLVLNVGMDSWGQGTQVTVSS,low polyreactivity
15,QVQLVESGGGLVQAGGSLRLSCAASGRTFQGNVMGWYRQAPGKERELVAAISRSGSRTYYADSVKGRFTISRDNAKNTVYLQMNSLKPEDTAVYYCNALKSKRRQVIWYDYWGQGTQVTVSS,high polyreactivity
16,QVQLVESGGGLVQAGGSLRLSCAASGRTFQKNTMGWYRQARGKEMQLVAAIDFSATTTYYADSVKGRFTISRDNAKNTVYLQMNSLKPEATAVYYCAARWSYPRWELDYWGQGTQVTVSS,high polyreactivity
17,QVQLVESGGGLVQAGGSLRLSCAASGRTFQLNAMGWYRQAPGKEREVVAAISTRGGSTYYADSVKGRFTISRDNAKNTVYLQMHRLKPEDTAVYYCAKDPSFTRGYKEGGGYDYWGQGTQVTVSS,high polyreactivity
18,QVQLVESGGGLVQAGGSLRLSCAASGRTFQRYAMGWYRQAPGKERELVAAITSRGGSTYYADSVKGRFTISRDNAKNTVYLQMNSLKPEDTAVYYCNARSRRTHSEPQSEMDYWGQGTQVTVSS,high polyreactivity
19,QVQLVESGGGLVQAGGSLRLSCAASGRTFQRYTMGWYRQAPGKERELVASISRSGGSTYYADSVKGRFTISRDNAKNTVYLQMNSLKPEDTAVYYCATRSLFWNRNHYRVSSPVLFDYWGQGTQVTVSS,high polyreactivity
20,QVQLVESGGGLVQAGGSLRLSCAASGRTFQTNDMGLYRKAPGKERELVAAISRRGGSTYYADSVKGRFTISRDNAKNTVYLQMNSLKPEDTAVYYCAATRLSRYDYWGQGTQVTVSS,low polyreactivity
21,QVQLVESGGGLVQAGGSLRLSCAASGRTFQVNAMGWYRQAPGKERELVAAISASDGSTYADSVKGRFTISRDNAKNTVYLQMNSLKPEDTAVYYCNKAAYGGHRTSEQVGWVYLYDYWGQGTQVTVSS,low polyreactivity
